The target of test [1] is HBsAg of HBV genotype D, serotype ayw (Hepatitis B virus). In words: cell-based or functional assay.
Test [2] has as its target T1, HBsAg of HBV genotype A (AY934772) (Hepatitis B virus).
T1 construct: captured from supernatant by horse polyclonal anti-HBsAg
In words: sandwich ELISA, captured HBsAg from culture supernatant.
Method: (§1) The binding of anti-HBsAg antibodies to the 4 major genotypes (A-D) of HBV were analyzed by sandwich ELISA.

The target in test [3] is HBsAg of HBV genotype B (AF 121245) (Hepatitis B virus). Described as above.
Method: as §1
The target in test [4] is HBsAg of HBV genotype C (DQ087960) (Hepatitis B virus). Described as above.
Method: as §1
Test [5] addresses T2, HBsAg AD serotype (Hepatitis B virus).
T2 construct: also called HBsAg serotype AD
Nature of the test: SPR epitope binning; competitor (1st, saturating Ab): HBC34.
Method: (§2) Epitope binning of anti-HBsAg antibodies with the two major serotypes of HBsAg, AY and AD, was performed utilizing surface plasmon resonance (SPR) technology. […] Each pair of antibodies was tested for blocking one another's binding to their epitope on the antigen by subsequently applying one antibody as first (saturating) followed by the other as second (competing) antibody and vice versa. Saturating antibodies were applied at 500 nM for 120s. Competing antibodies utilized the same conditions but were supplemented with the first antibody at 500 nM to maintain saturation. Binding signals were corrected by subtracting the reference cell signal. Specific binding of the competing antibody in presence of the saturating antibody was calculated by subtracting a saturating antibody plus buffer reference signal. All signals were normalized to 100 RU of immobilized ligand. The specific binding signal obtained from the application as competing antibody was expressed as percentage of the binding signal obtained from the application of the same antibody as saturating (first) antibody, the signal of which was regarded 100% binding.

The target in test [6] is T3, HBsAg AY serotype (Hepatitis B virus).
T3 construct: also called HBsAg serotype AY
Described as above.
Method: as §2

Test [7] deals with T2, HBsAg AD serotype. In words: SPR epitope binning; competitor (1st, saturating Ab): CR8087.
Method: as §2
The target of test [8] is T3, HBsAg AY serotype. Described as above.
Method: as §2
In test [9] the target is HBsAg clinical mutation G145R (Hepatitis B virus). In words: sandwich ELISA, captured mutant HBsAg from culture supernatant.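 Also: Anti-HBsAg antibodies tested for binding to mutant HBsAg secreted by stably transfected cell lines, supernatant incubated 1 h on antibody-coated plates.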 In general terms: In an ELISA, binding on a coated surface is turned into a signal by an enzyme label.
Method: (§3) The binding of anti-HBsAg antibodies to 4 well characterized vaccine and/or HBsAg clinical mutations of HBsAg (G145R, D144A, T126S, M133L) were analyzed by sandwich ELISA. […] Supernatant collected from HBsAg cell-culture derived clinical mutation stables (G145R, D144A, T126S, M133L) was allowed to bind antibody coated plates for 1 hour.
Test [10] has as its target HBsAg clinical mutation D144A (Hepatitis B virus). The description is as above.
Method: as §3
Test [11] deals with HBsAg clinical mutation T126S (Hepatitis B virus). The test is described as above.
Method: as §3
For test [12], the target named is HBsAg clinical mutation M133L (Hepatitis B virus). The description is as above.
Method: as §3
The target of test [13] is T2, HBsAg AD serotype. Nature of the test: SPR Biacore T200, HBsAg particles immobilized, antibody as analyte, 1:1 fit.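 Also: Anti-HBsAg antibodies assessed for binding against both major HBsAg serotypes, AY and AD.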 For orientation: In SPR one partner is held on a chip, and binding of the other changes the refractive index at the surface.
Method: (§4) Binding affinity interaction (KD) of the anti-HBsAg antibodies with the two major serotypes of HBsAg, AY and AD, was determined utilizing surface plasma resonance (SPR) technology.
Test [14] deals with T3, HBsAg AY serotype. The description is as above.
Method: as §4
Test [15] deals with HBsAg clinical mutation T126S (Hepatitis B virus). Nature of the test: sandwich ELISA, mutant HBsAg from cell supernatant captured on horse polyclonal anti-HBsAg, antibody titrated, absorbance 450 nm.
Test [16] has as its target HBsAg clinical mutation M133L (Hepatitis B virus). The test is described as above.
Test [17] deals with HBsAg clinical mutation D144A (Hepatitis B virus). Described as above.
The target of test [18] is HBsAg clinical mutation T126S (Hepatitis B virus). The test is described as above. The source holds these as a separate data set.
Test [19] addresses HBsAg clinical mutation M133L (Hepatitis B virus). The test is described as above. This is another data set of the same source.

From patent US20240317840A1 (Novartis, published 2024) come the findings set out here.

Read-outs that look alike come from different tables or passages of the source.

B1: NOV3841 (antibody, human IgG1, lambda, V domains shown)
VH: EVQLLESGGGLVQPGGSRRLSCAASGFTFSYYGMNWVRQAPGKGLEWVSGITQSGSITYYADTVKGRFSISRDNSKNTLFLQMNSLRAEDTAVYYCAKVGVRSSSGMWDLDYWGQGTLVTVSS
VL: SYVLTQPPSVSVAPGQTARLSCGGNNIGSKSLQWYQQKPGQAPVLVVNDESDRPSGIPERFSGSNSGNTATLTISRVEAGDEADYYCQVWDTSSDHVVFGGGTKLTVLG
notes: Full human IgG1 (lambda) expressed in CHO cells
Broadly, the IC50 is the concentration at which inhibition is half-maximal. Usually Kd stands for the constant that tells how readily two partners part at equilibrium. By EC50 (read off the curve) is commonly meant the concentration at which the effect is half-maximal. In the case of B1, the “Virus neutralization EC50” value in test [1] amounted to 0.74 nM. Moreover, the IC50 in test [2] was 1.1 nM; in test [3] it was 0.35 nM; in test [4], 2 nM; in [9], above 67 nM; in [10], 7.8 nM; in [11], 0.079 nM. For the same molecule, in test [12], half-maximal inhibition (IC50) was put at 0.044 nM. The “binding of second antibody” value was 145 % of its binding as first antibody with HBsAg AD serotype [5], 107 % of its binding as first antibody with HBsAg AY serotype [6], 282 % of its binding as first antibody with HBsAg AD serotype [7] and 129 % of its binding as first antibody in the test with HBsAg AY serotype [8]. The Kd came to 0.91 nM with HBsAg AD serotype [13] and 0.61 nM with HBsAg AY serotype [14]. Besides, the entries for the “EC50 (read off the curve)” value in test [15] and in [16] were around 0.07 nM and around 0.06 nM, respectively.

B2: NOV3842 (antibody, human IgG1, lambda, V domains shown)
VH: EVQLLESGGGLVQPGGSRRLSCAASGFTFSYYGMNWVRQAPGKGLEWVSGITNVGSITYYADTVKGRFSISRDNSKNTLFLQMNSLRAEDTAVYYCAKVGVRSSSGMWDLDYWGQGTLVTVSS
VL: SYVLTQPPSVSVAPGQTARLSCGGNNIGSKSLQWYQQKPGQAPVLVVNDESDRPSGIPERFSGSNSGNTATLTISRVEAGDEADYYCQVWDTSSDHVVFGGGTKLTVLG
notes: as for B1
For the molecule B2, the “Virus neutralization EC50” value in test [1] was determined as 0.23 nM. Besides, the IC50 in test [2] is 0.46 nM; in [3] it was 0.28 nM; in test [4] it was 0.75 nM; in test [9], above 67 nM; in test [10], 0.12 nM; in [11] it was 0.042 nM. In [12], this molecule gave an IC50 of 0.084 nM. In addition, the “binding of second antibody” value with HBsAg AD serotype [5] is 115 % of its binding as first antibody; with HBsAg AY serotype [6] it was 103 % of its binding as first antibody; in the test with HBsAg AD serotype [7], 216 % of its binding as first antibody; with HBsAg AY serotype [8], 118 % of its binding as first antibody. The Kd with HBsAg AD serotype [13] is 0.13 nM; with HBsAg AY serotype [14] it was 0.15 nM. The “EC50 (read off the curve)” value was around 0.1 nM in test [17], around 0.05 nM in test [18] and around 0.05 nM in [19].
